From US20150147318A1 (ZOETIS SERVICES, published 2015)
Positions count from the first letter of the chain named. In names and notes the source's numbering stands.

Assays:
[1] = target: T1, recombinant canine Nerve Growth Factor (Canis lupus familiaris NGF) (canine (Canis lupus familiaris), UniProt Q29074 110-229 (pig entry), limits assumed); assay: cell-based or functional assay
T1 chain: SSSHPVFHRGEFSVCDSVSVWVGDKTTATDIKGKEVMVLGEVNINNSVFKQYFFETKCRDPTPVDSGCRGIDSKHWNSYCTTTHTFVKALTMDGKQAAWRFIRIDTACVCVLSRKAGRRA

[2] = target: T1, recombinant canine Nerve Growth Factor …; assay: method not stated; recombinant canine NGF
[3] = target: T1, recombinant canine Nerve Growth Factor …; assay: SPR trkA inhibition: mAb pre-incubated with NGF, binding of NGF to trkA measured in RU
[4] = target: T1, recombinant canine Nerve Growth Factor …; assay: SPR, Biacore T100, dog NGF; run 11/24
[5] = target: T1, recombinant canine Nerve Growth Factor …; assay: SPR, Biacore T100, dog NGF; run 11/29
[6] = target: T1, recombinant canine Nerve Growth Factor …; assay: SPR, Biacore T100, dog NGF; run 11/24; comment 'Agg?'
[7] = target: T1, recombinant canine Nerve Growth Factor …; assay: SPR, Biacore T100, dog NGF; run 11/29; comment 'Agg?'
[8] = target: T1, recombinant canine Nerve Growth Factor …; assay: SPR, Biacore T100, dog NGF; run 11/22
[9] = target: T1, recombinant canine Nerve Growth Factor …; assay: SPR, 1:1 binding fit, canine NGF

B1: murine anti-NGF monoclonal antibody RN911 (antibody, V domains shown)
VH: QVQLKESGPGLVAPSQSLSITCTVSGFSLIGYDINWVRQPPGKGLEWLGMIWGDGTTDYNSALKSRLSISKDNSKSQVFLKMNSLRTDDTATYSCARGGYYYGTSYYFDYWGQGTTLTVSS
VL: DIQMTQTTSSLSASLGDRVTISCRASQDISNHLNWYQQKPDGTVKLLIYYISRFHSGVPSRFSGSGSGTDYSLTISNLEQEDIATYFCQQSKTLPYTFGGGTKLEIKR
notes: Mouse mAb; also called MU-RN911
- EC50, pERK inhibition, PC-12 (Rat Neuronal), pre-incubation 1 hour, 2/23/11 (RN911) [1]: 0.67 nM
- EC50, pERK inhibition, PC-12 (Rat Neuronal), pre-incubation 1 hour, 3/26/11 (RN911) [1]: 0.46 nM
- EC50, pERK inhibition, huTrkA (CHO), pre-incubation 1 hour, 3/26/11 (RN911) [1]: 0.47 nM
- EC50, pERK inhibition, huTrkA (CHO), pre-incubation 1 hour, 3/31/11 (RN911) [1]: 0.62 nM
- EC50, pERK inhibition, huTrkA (CHO), pre-incubation 6 hour, 3/31/11 (RN911) [1]: 0.57 nM
- Kd [2]: 755 pM
- Ki [3]: 4200 pM

B2: LTM construct 45 (HC Y100W, LC H32N) (antibody, V domains shown)
VH: EVQLVESGGDLARPGGSLKLSCVVSGFSLIGYDINWVRQAPGKGLQWVTMIWGDGTTDYNSALKSRFTVSRDNAMNTVYLQMNSLRVEDTAVYYCARGGWYYGTSYYFDYWGQGTLVTVSS
VL: DIVMTQTPLSLSVSPGETASISCRASQDISNNLNWFRQKPGQSPQRLIYYISRFHSGVPDRFSGSGSGTDFTLRISRVEADDTGVYYCQQSKTLPYTFGAGTKLEIK
notes: Point mutant of canE3M65 as full IgG; Constant regions are not restated
- Kd [4]: 2100 pM
- Kd [5]: 4350 pM

B3: LTM construct 133 (HC G103A, LC K92H) (antibody, V domains shown)
VH: B2 VH with W100Y, G103A
VL: B2 VL with N32H, K92H
notes: Point mutant of canE3M65 as full IgG
- Kd [6]: 1.33 pM
- Kd [7]: 11 pM

B4: LTM construct 35 (HC Y100W, LC D28S, H32N, K92H) (antibody, V domains shown)
VH: B2 VH
VL: B2 VL with D28S, K92H
notes: as for B2
- Kd [8]: 237 pM
- Kd [5]: 810 pM

B5: LTM109 (HC Y101W, G103A; LC D28S, H32N, K92H) (antibody, V domains shown)
VH: B2 VH with W100Y, Y101W, G103A
VL: B2 VL with D28S, K92H
notes: Full IgG; constant regions are not restated; also called CAN-LTM109-VH / CAN-LTM109-VL
- Kd [4]: 515 pM
- Kd [5]: 748 pM

B6: LTM construct 43 (HC Y100W, LC K92H) (antibody, V domains shown)
VH: B2 VH
VL: B2 VL with N32H, K92H
notes: as for B2
- Kd [4]: 5670 pM

B7: SSM58 (CAN-SSM58-VH, CAN-SSME3M-VL) (antibody, V domains shown)
VH: B2 VH with G31E, W100Y, Y101W, G103A
VL: B2 VL with D28S, R53S, K92H
- EC50, pERK inhibition, PC-12 (Rat Neuronal), pre-incubation 1 hour, 2/23/11 (SSM58) [1]: 1.05 nM
- EC50, pERK inhibition, PC-12 (Rat Neuronal), pre-incubation 1 hour, 3/26/11 (SSM58) [1]: 0.65 nM
- EC50, pERK inhibition, huTrkA (CHO), pre-incubation 1 hour, 3/26/11 (SSM58) [1]: 0.79 nM
- EC50, pERK inhibition, huTrkA (CHO), pre-incubation 1 hour, 3/31/11 (SSM58) [1]: 0.86 nM
- EC50, pERK inhibition, huTrkA (CHO), pre-incubation 6 hour, 3/31/11 (SSM58) [1]: 0.72 nM
- Fold Potency Difference versus RN911, pERK inhibition, PC-12 (Rat Neuronal), pre-incubation 1 hour, 2/23/11 (SSM58) [1]: 1.6 fold
- Fold Potency Difference versus RN911, pERK inhibition, PC-12 (Rat Neuronal), pre-incubation 1 hour, 3/26/11 (SSM58) [1]: 1.4 fold
- Fold Potency Difference versus RN911, pERK inhibition, huTrkA (CHO), pre-incubation 1 hour, 3/26/11 (SSM58) [1]: 1.7 fold
- Fold Potency Difference versus RN911, pERK inhibition, huTrkA (CHO), pre-incubation 1 hour, 3/31/11 (SSM58) [1]: 1.4 fold
- Fold Potency Difference versus RN911, pERK inhibition, huTrkA (CHO), pre-incubation 6 hour, 3/31/11 (SSM58) [1]: 1.3 fold
- Ki [3]: 4200 pM

B8: SSM66 (CAN-SSM66-VH, CAN-SSME3M-VL) (antibody, V domains shown)
VH: B2 VH with G31E, D54T, W100Y, Y101W, G103A
VL: B2 VL with D28S, R53S, K92H
- EC50, pERK inhibition, PC-12 (Rat Neuronal), pre-incubation 1 hour, 2/23/11 (SSM66) [1]: 1.45 nM
- EC50, pERK inhibition, PC-12 (Rat Neuronal), pre-incubation 1 hour, 3/26/11 (SSM66) [1]: 0.71 nM
- EC50, pERK inhibition, huTrkA (CHO), pre-incubation 1 hour, 3/26/11 (SSM66) [1]: 0.76 nM
- EC50, pERK inhibition, huTrkA (CHO), pre-incubation 1 hour, 3/31/11 (SSM66) [1]: 0.94 nM
- EC50, pERK inhibition, huTrkA (CHO), pre-incubation 6 hour, 3/31/11 (SSM66) [1]: 0.69 nM
- Fold Potency Difference versus RN911, pERK inhibition, PC-12 (Rat Neuronal), pre-incubation 1 hour, 2/23/11 (SSM66) [1]: 2.2 fold
- Fold Potency Difference versus RN911, pERK inhibition, PC-12 (Rat Neuronal), pre-incubation 1 hour, 3/26/11 (SSM66) [1]: 1.5 fold
- Fold Potency Difference versus RN911, pERK inhibition, huTrkA (CHO), pre-incubation 1 hour, 3/26/11 (SSM66) [1]: 1.6 fold
- Fold Potency Difference versus RN911, pERK inhibition, huTrkA (CHO), pre-incubation 1 hour, 3/31/11 (SSM66) [1]: 1.5 fold
- Fold Potency Difference versus RN911, pERK inhibition, huTrkA (CHO), pre-incubation 6 hour, 3/31/11 (SSM66) [1]: 1.2 fold
- Ki [3]: 4500 pM

B9: LTM construct 34 (HC Y100W, LC D28S, H32N) (antibody, V domains shown)
VH: B2 VH
VL: B2 VL with D28S
notes: as for B2
- Kd [8]: 639 pM
- Kd [5]: 885 pM

B10: LTM135 (HC G103A, LC H32N) (antibody, V domains shown)
VH: B2 VH with W100Y, G103A
VL: B2 VL
notes: as for B3
- Kd [9]: 1690 pM
- koff [9]: 4.23e-05 s⁻¹
- kon [9]: 25100 M⁻¹ s⁻¹
- Kd [6]: 138 pM
- Kd [7]: 6.1 pM

B11: LTM construct 44 (HC Y100W, LC S91E) (antibody, V domains shown)
VH: B2 VH
VL: B2 VL with N32H, S91E
notes: as for B2
- binding result [4]: no binding

B12: SSM57 (CAN-SSM57-VH, CAN-SSME3M-VL) (antibody, V domains shown)
VH: B2 VH with G31Q, W100Y, Y101W, G103A
VL: B2 VL with D28S, R53S, K92H
notes: also called PF 06442590; PF-06442591
- EC50, pERK inhibition, PC-12 (Rat Neuronal), pre-incubation 1 hour, 2/23/11 (SSM57) [1]: 1.08 nM
- EC50, pERK inhibition, PC-12 (Rat Neuronal), pre-incubation 1 hour, 3/26/11 (SSM57) [1]: 0.65 nM
- EC50, pERK inhibition, huTrkA (CHO), pre-incubation 1 hour, 3/26/11 (SSM57) [1]: 0.85 nM
- EC50, pERK inhibition, huTrkA (CHO), pre-incubation 1 hour, 3/31/11 (SSM57) [1]: 0.86 nM
- EC50, pERK inhibition, huTrkA (CHO), pre-incubation 6 hour, 3/31/11 (SSM57) [1]: 0.73 nM
- Fold Potency Difference versus RN911, pERK inhibition, PC-12 (Rat Neuronal), pre-incubation 1 hour, 2/23/11 (SSM57) [1]: 1.6 fold
- Fold Potency Difference versus RN911, pERK inhibition, PC-12 (Rat Neuronal), pre-incubation 1 hour, 3/26/11 (SSM57) [1]: 1.4 fold
- Fold Potency Difference versus RN911, pERK inhibition, huTrkA (CHO), pre-incubation 1 hour, 3/26/11 (SSM57) [1]: 1.8 fold
- Fold Potency Difference versus RN911, pERK inhibition, huTrkA (CHO), pre-incubation 1 hour, 3/31/11 (SSM57) [1]: 1.4 fold
- Fold Potency Difference versus RN911, pERK inhibition, huTrkA (CHO), pre-incubation 6 hour, 3/31/11 (SSM57) [1]: 1.3 fold
- Ki [3]: 4200 pM
